The test has as its target GST-CypA (UniProt P62937). Put plainly: pull-down; 35S-labelled in vitro translated proteins incubated overnight in binding buffer with about 2.0 µg purified GST fusion or GST alone; glutathione Sepharose beads; 5 washes with PBS, 0.25% NP-40; SDS-10% PAGE, fluorography.
UniProt P62937, sequence (P62937 whole entry, the tested form may be a part): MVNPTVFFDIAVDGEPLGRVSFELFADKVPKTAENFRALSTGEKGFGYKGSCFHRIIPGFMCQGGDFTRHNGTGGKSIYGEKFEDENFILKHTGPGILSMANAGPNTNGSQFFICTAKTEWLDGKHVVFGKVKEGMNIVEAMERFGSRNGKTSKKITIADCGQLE

On to “HA-wt NS5A with in-frame deletion of amino acids 271-360 (domain or fragment)”, for which the percent of input pulled down was 8 to 9 % of input.
Under “HA-wt NS5A with in-frame deletion of amino acids 361-451 (domain or fragment)” stands 5 % of input.
